Data as given in publication PMC12607630, “ZapC crosslinks FtsZ filaments through a dual-binding mechanism modulated by the intrinsically disordered linker of FtsZ in Escherichia coli” (mBio, 2025).
Several values for one entry are separate records, joined by “and”; a condition that tells them apart may be missing. Equal values may be shown once.

Target: T1, FtsZ A376T (untagged) (Escherichia coli, UniProt P0A9A6 1-383, A376T)
T1 construct: FtsZ of Escherichia coli with A376T (CTP); Derivative of pLY17 by site-directed mutagenesis; source: E. coli BL21(DE3), plasmid pLY22, purified (Ni-NTA); 6×His-SUMO tag removed with Ulp1; not shown: 6×His-SUMO, N-terminal, cleaved
T1 sequence (looked up): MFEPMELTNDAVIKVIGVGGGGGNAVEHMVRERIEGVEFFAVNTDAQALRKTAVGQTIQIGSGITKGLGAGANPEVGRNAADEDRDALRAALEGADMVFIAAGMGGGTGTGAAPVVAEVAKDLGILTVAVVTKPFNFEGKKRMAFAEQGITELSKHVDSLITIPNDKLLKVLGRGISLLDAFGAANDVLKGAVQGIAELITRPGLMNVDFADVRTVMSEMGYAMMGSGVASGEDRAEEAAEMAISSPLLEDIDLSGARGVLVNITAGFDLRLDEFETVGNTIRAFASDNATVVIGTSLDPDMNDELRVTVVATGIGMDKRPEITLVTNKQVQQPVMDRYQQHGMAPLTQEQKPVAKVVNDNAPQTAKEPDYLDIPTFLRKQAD
Experiment: BLI; 6×His-ZapC or its mutants (0.5 µM) loaded on Ni-NTA biosensors, untagged FtsZ or its variants in solution; Octet-Red96, 30°C, 1× Pol buffer (50 mM HEPES-NaOH pH 6.8, 50 mM KCl, 10 mM MgCl2); apparent Kd from the signal at the end of association against concentration, one-site fit; three repeats with mean (X) and SD
Settings: both partners purified

Kd: 859 nM and 778 nM and 821 nM and 819 nM
B1: 6×His-ZapC (natural protein)
chain: not shown
notes: ZapC, FtsZ-associated protein of Escherichia coli; Construction of pSD323 is not described; also called His-tagged ZapC; source: E. coli, plasmid pSD323 (pQE80, Plac::6×His-ZapC), purified (Ni-NTA); not shown: His6, N-terminal, kept
